Test results reported in the nanobody polyreactivity screen of Harvey et al. (2022).

Experiment: yeast display, Sf9 membrane polyspecificity reagent, FACS + sequencing; frameworks hold sequencing errors
Summary of the method: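 A nanobody's polyreactivity label depends on the gate it was sorted from. Yeast display cells were stained with 10% biotinylated, detergent-solubilized Sf9 membrane reagent for 1 hour at 4 °C, enriched on streptavidin microbeads and sorted by FACS. The low and high (top ~1%) gates were set on anti-HA fluorescence for expression and streptavidin fluorescence for reagent binding.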

Sequence	polyreactivity (PSR sort gate)
QVQLVESGGGLVQAGGSLSLSCAASGYNFYKNAMGWYRPAPGKERELVAAISTRGGSTYYADSVKGRFTISRDNAQITVYLPMNSLKPEDTAVYYCAASQHRRDWGQGTQVTVSS	high polyreactivity
QVQLVESGGGLVQAGGSLRLSCAASGSTLEPNAMGWYRQAPGKERELVAAITIGGSTYYADSVKGRFTISRDNAKNTVYLQMNSLKPEDTAVYYCAAKSTVQRRRHTNYDYWGQGTQVTVSS	high polyreactivity
QVQQRESGGGLVQAGGSLSLSCAASGTIFYSRYMGWYRQAPGKEREFVASISSGGNTNYADSVKGRCTISRDNAKNTVYLQMNSLKPEVTAVYYCAVNTGLITTFPFWGQATQVTVSS	high polyreactivity
QVQLVESGAGLVQAGGSLRLSCAASGITFAYYAMGWYRQAPGKERELVAAIRGGTNTYYADSVKGSYTISRDNAKNTVYFLMNSLKPEDTAVYYCAARRSSHWFTYDYWGQGTLVTVSS	high polyreactivity
QVQLVESGGGLVQAGGSLRLSCAASGRTFYPNAMGWSRQAPGQERAFVARISDSGGSTYYADSVKGRFTISRDNAKNTVYLQMNSLKPEDNAVYYCAADYGDPRVNEYDYWGQGTQVTVSS	low polyreactivity
QVQLEESGGGLVQAGGSLRLSCAASGRILVKNTMGWYRQAPGKERELVAAITSGGNTYYADSVKGRFTISRDNAKNTVYLQMNSLKPEDTAVYYCNKVSNRSGYYWGQGTQVTVSS	high polyreactivity
QVQLVESGGRLVQAGGSLRLTCAASGSTFTTYAMGWSRQAPGKERELVAAITSGSSTNYADSVKGRFTISRDNAKNTVYLQMNSLKPEDTAVYYCAVDREWPGYYYAISKMYYWGQGTQVTVSS	low polyreactivity
QVQLVESGGGLVQAGGSLRLSCAASGSTFKDNAMGWYRLAPGKERELVARITYRGGRTYADSVKGRFTISRDNAKNTVFLQMNSLKPEDTAVYYCAARPSLYGHNSRYDYWGQGTQVTVSS	low polyreactivity
QVQLVESGGGLVQAGGSLRLSCAASGSTFVQNDMGWYIPAPGKERELVAAISRTGGSTYYADSVKGRFTISRDNAKNTVYLQMNSLKPEDTAVYYCARRYYYQYRYDYWGQGTQVTVSS	high polyreactivity
QVQLVESGGGLVQAGGSLRLSCAASGITFYLYAMGWYRQAPGKERELVAAISGRGGITYYADSVKGRFTISRDNAKNTVYLQMNSLKPEDTAVYYCAAGKLIWGQGTQVTVSS	high polyreactivity
QVQLVESGGGLVQAGGSLRLSCAASGSTLSDKSIGWYRQAPGKEMELVASISWSGGTYYADSVKGRFTISRDNAKNTVYLQMNSLKPEDTAVYYCAAYIYYNYSRQYLYDYWGQGTQVTVSS	low polyreactivity
QVQLVESGGGLVQAGGSLRLSCAASGRTFYINAMGWYRQAPGKERELVATITRSGGSTYYADSVKGRFTISRDNAKNTVYLQMNSLKPEDTAVYYCAAGGGYYRYRDYDYWGQGTQVTVSS	high polyreactivity
QVQLVESGGGLVQAGGSLRLSCAASGSILEVYAMGWYRQAPGKERELVAAISDGDSTYYADSVKGRFTISRDNAKNTVYLQMNSLKPEDTAGYYCAAEFVGTLWWYDYWGQGTQVTVSS	low polyreactivity
QVQLVESGGGLVQAGGSLRLSCAASGTFVTYMGWYRQAPGKERELVAAIRNGGSTNYADSVKGRFTISRDKAKNTVYLQMNSLKPEDTAVYYCAADRAGSIMNYWGQGTQVTVSS	low polyreactivity
QVQLVESGGGLVQAAGSLRLSCAASGRIFTPYAMGWYRQAPGKERELVAVIRDGSTYYADSVKGRFTISRDNAKNTVYLQMNSLKPEDTAVYYCRYDIWVWWSGAYDYWGLGTQVTVSS	low polyreactivity
QVQLVESGGGLVQAGGSLRLSCAASGLTFGLNAMGWYRQAPGKEREVVAAITWSGGSTYYADSVKGRFTISRDNAKNTVYLQMNSLKPEDTAVYYCATDNWSVNGGYNYWGQGTHVTVSS	low polyreactivity
QVQLVESGGGLVQAGGSLRLSCAASGLIFSSNAMGWYRQAPGKERELVAAISSRGGRTYYADSVKGRFTISRDNAKNTVYLQMNSLKPEDTAVYYCAKYFTEVSRHTYDYWGQVTQVTVSS	high polyreactivity
QVQLVESGGGLVQAGGSLRLSCAASGRIFYFNAKGGYRQAPGKERELVAAIRNDTRTYYADSVKGRFTISRDNAKNTVYLQLNSLKPEDTAVYYCAARVYFSVITPIKYNYWGQGTQVTVSS	high polyreactivity
QVQLVESGGGLVQAGGSLRLSCAASGSIFPRNAMGWSRQAPGKEMELVATITSGTSTNYADSVKGRFTISRDNAKNTVYLQMNSLKPEDTAVYYCAADHYYTGTTYNYWGQGTQVTVSS	low polyreactivity
QVQLVESGGGLVQAGGSLRLSCAASGFIFTKYAMGWYRQAPGKERELVAVITSRGTRTYYADSVKGRFTISRDNAKNTVYLQMNSLKPEDTAVYYCAADYQGPYDYWGQGTQVTVSS	high polyreactivity
QVQLVESGGGLVQAGGSLRLSCAASGRTFYYAMGWYRQAPGTERELVATITSGGSTNYADSVKGRFTISRDNAKNTVYLQMNSLKPEDTAVYYCNRDIPPGNYYKALYYYWGQGTQVTVSS	low polyreactivity
QVQLVESGGGLVQAGGSLRLSCADSGRIFGPYAMGWYRKAPGKERELVAAIRASSSTYYADSVKGRFTISRDNAKNTVYLQMNSLKPEDTAVYYCAADWYYGYAWKYGYWGQGTQVTVSS	low polyreactivity

Sequence	polyreactivity (PSR sort gate)
QVQLVDSAGGLVQAGGSLRLSCAASGSIINSNAMGWYRQAPGKERELVAAINWRGGSTYYADSVKGRFTISRDNAKNTVYLQMNSLKPEDTAVYYCNALRRAPRAEYYYGGQGTQVTVSS	high polyreactivity
QVQLVESGGGLVQAGGSLRLSCAASGSTFGGYAMGWYRQAPGKERELVATITGGGSTNYADSVKGRFTISRDNAKNTVYLQMNSLKPEDTAVYYCAATEKYQYKVFYDPVGAYDYWGQGTQVTVSS	low polyreactivity
QVQLVESGGGLVQAGGSLRLSCAASGSIFYINPMGWYRQAPGKERELVAAINFSDGRTYYADSVKGRFTISRDNAKNTVYLQMNSLKPEDTAVYYCAAAVYPSEYDYWGQGTQVTVSS	low polyreactivity
QVQLVESGGGLDQAGGSLRLTCAASGRTFSRNAMGWYRQAPGKERELVAAISGSGGTTYYADSVKGRFTISRDNAKNTVYLQMKSLKPEDTAVYYCAADLRYAWVFWYEYWGLGTQVTVSS	low polyreactivity
QVQLVESRAGLVQAGGSLRLSCAASGSTRNRNVMGWYRPAPGKERELVAVITYGVGSTYYADSVKGRFTISRDNAKNTVYLQMNSLKPEDTAVYYCNKDPLVFDYWAQGTQVTVSS	low polyreactivity
QVQLVESGGGLVQAGGSLRLSCAASGRIFSYNAMGWYRQAPGKERELVAAISTGTSTYYADSVKGRFTISGDNAKNTVYLQMNSLKPEDTAVYYCAVDAYYWYQWYDYWGQGTQVTVSS	low polyreactivity
QVQLVESGGGLVQAGGSLRLSCAASGRNFYYNAMGWYRQAPGKEREFVAGISYGGTTTYYADSVKGRFTISRDNAKNTVYLLMNSLKPEDTAVYYCAAGYTWRQSWYPFDYWGQGTQVTVSS	high polyreactivity
QVQLVESGGGLVQAGGSLRLSCAASGRTFFWNDMGWYRPAPGKERELVAAITWSGGSTYYADSVKGRFTISRDNAKNTVYLQMNSLKPEDTAVYYCDAVVSDYVWRYEYWGQGTQVTVSS	low polyreactivity
QVQLVESGGGIVQAGGSLRLSCAASGRHFYTNAMGWYRQAPGKERELVATISGSVGNTYYEDSVKGRFTISRDNAKNTVYLQMNSLKPEDTAVYYCAKAYYTPYGVYVLHYYWGQGTQVTVSS	high polyreactivity
QVQLVESGGGLVQAGGSLRLSCAASGSIFGIYAMGWYRPAPGKERELVATINSRGTTNYADSVKGRFTISRDNAKNTVYLQMNSLKPEDTAVYYCAARFSTYRGKRKGYEYWGQGTQVTVSS	high polyreactivity
QVQLVESGGGLVQAGGSLRLSCAASGIIFIHYTMGWYRQAPGKERELVAAISWSGGSTYYADSVKGRFTISRDNAKNTVYLQMNSLKPEDTAVYYCAADYIFYHRMYYWGQGTQVTVSS	high polyreactivity
QVQLVESGGGLVQAGGSLRLSCAASGRIFERYAMGWYRQAPGKERELVAAISGGGSTYYADSVKGRFTISRDNAKNTVYLQMNSLTPEDTAFYYCNTRGNSRMDYWGQGTQVTVSS	high polyreactivity
QVQLVESGGGLVQAGCSLRLSCAASGRTIGYYAMGLYRPAPGKERELVAAISTRGGRTSYADSVKGRFTISRDNAKYTVYFQMNSLKPEDTAVYYCAADGVRVHKDPTGHYYWGQGTQVTVSS	high polyreactivity
QVQLVESGGGLDQAGGSLRLTCAAYGSTFRYNAMGWYRQAHGKERELVAAIDKRGDSTYADSVKGSFTISRDNAKNTVYLQMNSMNPDDTAVYYCAADSDSKYYYGFLLDTYEYWGQATQVTVSS	low polyreactivity
QVQLVESGGGLVQAGGSLRLSCAASGRTFARYTMGWYSQAPVKERELVASITRGGSTYYADSVKGRFTISSDNAKNTVYLQMYSLKPEDTAVYYCNAVYIVGGDWGQGTQVTVSS	high polyreactivity
QVQLVESGGGLVQAGGSLRLSCAASGFTFGSNAMGWYRQAPGKERELVAAISSGDSTHYADSVKGRFTISRDNAQNTVYLQMNSLKPEDTAVYYCNADNILYWSTLDYWGQGTQVTVSS	low polyreactivity
QVQLVESGGGLVQAGGSLRLSCAASGSTFAYYVMGWYRQAPGKERELVAAISRGGRTYYADSVKGRFTISRDNAKNTVYLQMNSLKPEDTAVYYCAKPYHQRSAKVDYWGQGTQVTVSS	low polyreactivity
QVQLVESAGGLVQAGGSLRLSCAASGITFSGYAMGWYRQAPGKERELVAAISWRGVRTYYADSVKGRFTISRDNAKNTVYLQMNSLKPEDTAVYYCAAVRYITKEFYWGQGTQVTVSS	high polyreactivity
QVQLVESGGGLVQAGGSLRLSCAASGFTFDSYDMGWYRQAPGKERELVAAITWSGGSTYYADSVKGRFTISRDNAKNTVYLQMYSLKPEDTAVYYCKADTGTYWVPWYHDGYDYWGEGTQVTVSS	low polyreactivity
QVQLVESGGGLVQAGGSLRISCAASGRIFSFYAMGWYRQAPGKERELVAAISYSDGSTYYADSVKGRFTISRDNAKNTVYLQMNSLKPEDTAVYYCAKYGYDHDYNYWGQGTQVTVSS	low polyreactivity
QVQLVESGGGLVQAGGSLRLSCAASGRIFSEYAMGWYRQAPGKERELVAAISGTGGRTYYADSVKGRFTISRDNAKNTVYLQMNSLKPEDTAVYYCAARTGQGPLYNHWGQGTQVTVSS	high polyreactivity
